The text below walks through data of patent US20240174755A1 (published 2024).

For experiment [1], the target named is T1, human EGFR/HER1/ErbB1 Protein (His Tag, Sino Biological; Cat. Number 10001-H08H) (human, UniProt P00533 25-645).
T1 construct: Bought; construct not described; not shown: His tag
In words: direct ELISA, EGFR coated, streptavidin-HRP detection. As for the experimental part: (§1) 96-well maxisorp (Nunc) immunosorp plates were coated with 2 ug/ml of human PDGFRa (Sino Biological; Cat. Number; 10556-HCCH) or 2 ug/ml human EGFR/HER1/ErbB1 Protein (His Tag, Sino Biological; Cat. Number; 10001-H08H) in PBS, 100 ul per well, at 4C overnight. Wells were washed thrice in PBS. Unspecific binding sites were blocked in 4% BSA/PBS for 1 h at RT, followed by washing thrice in PBS. VHH-biotin conjugates, diluted at 0.01-100 nM in 1% BSA/PBS, were incubated for 1 h at RT, followed by washing thrice in PBS. Streptavidin-horseradish peroxidase (HRP; GeneTex) was diluted 1:40,000 in 1% BSA/PBS and was incubated for 1 h at RT. PDGFRa or EGFR was detected with positive control antibodies rabbit anti-human PDGFRa/CD140a Antibody, (Cat no: 10556-R065) or rabbit anti-human EGFR/HER1/ErbB1 (Catalog no: 10001-R021, both from Sino Biological) diluted in 1% BSA/PBS at 1:5000 and were incubated for 1 h at RT, shaking. Secondary HRP-conjugated anti-rabbit-antibody was diluted at 1:5000 in 1% BSA/PBS and was incubated for 1 h at RT, shaking. Wells were washed 6 times in PBS. o-Phenylenediamine dihydrochloride (OPD; Sigma-Aldrich) was used as HRP substrate at 0.4 mg/ml in 0.05 M phosphate-citrate buffer pH 5.0 with 0.03% sodium perborate (Sigma-Aldrich), prepared according to the manufacturer's recommendations, and was used in volume of 100 ul per well. Reaction was allowed to proceed for 30 min at RT in dark, and was stopped by adding 50 ul of 1.5 M HCl. Optical density was measured at 492 nm on a Synergy H1 microplate reader (BioTek).
Background: ELISA stands for enzyme-linked immunosorbent assay.

The target in experiment [2] is T2, human PDGFRa (Sino Biological; Cat. Number 10556-HCCH) (human, UniProt P16234 24-524, limits assumed).
T2 construct: Bought; construct not described; also called PDGFRα
Description: direct ELISA, PDGFRa coated, streptavidin-HRP detection. As for the experimental part: as §1
VHH-biotin binding to human PDGFRa was assessed using an ELISA, where wells were coated with PDGFRa, and VHH-biotin binding was detected using streptavidin-HRP with OPD as a substrate.

For experiment [3], the target named is T3, human PDGFR β extra-cellular domain (ECD), Fc- and His-tagged (Sino Biological) (human, UniProt P09619 33-532).
T3 construct: extracellular domain; Bought; also called hECD; Fc/His-tagged PDGFR β ECD; not shown: Fc tag and His tag
In words: biotin-streptavidin ELISA, human PDGFR β ECD coated at 1 ug/ml. As for the experimental part: (§2) In this example, the binding affinity of biotin-conjugated VHHs 1B5 and 1E12 to either human or mouse PDGFR β extra-cellular domain (ECD) was assessed using biotin-streptavidin ELISA. Human or mouse PDGFR β ECD was coated on immunoassay wells, where 1B5-biotin or 1E12-biotin were captured. Binding was detected using streptavidin-HRP and ODP as a substrate.
ELISA Method 96-well maxisorp (Nunc) immunosorp plates were coated with 1 ug/ml or 2 ug/ml of PDGFR β extracellular domain (ECD; Fc- and His-tagged, Sino Biological) or mouse PDGFR β ECD (R&D Systems) 4 ug/ml in PBS, 100 ul per well, at 4C overnight. Wells were washed thrice in PBS. Unspecific binding sites were blocked in 4% BSA/PBS for 1h at RT, followed by washing thrice in PBS. VHHs 1B5-biotin or 1E12-biotin, diluted at 0.01-100 nM in 1% BSA/PBS, was allowed to bind on ECD for 1 h at RT, followed by washing thrice in PBS. Streptavidin-horseradish peroxidase (HRP; GeneTex) was diluted 1:10,000 in 1% BSA/PBS and was incubated for 1 h at RT. […] Optical density was measured at 492 nm on a Synergy H1 microplate reader (BioTek). […]

The target in experiment [4] is T4, mouse PDGFR β ECD (R&D Systems) (mouse, UniProt P05622 32-531).
T4 construct: extracellular domain; Bought; also called mECD; mouse ECD
T4 sequence (looked up): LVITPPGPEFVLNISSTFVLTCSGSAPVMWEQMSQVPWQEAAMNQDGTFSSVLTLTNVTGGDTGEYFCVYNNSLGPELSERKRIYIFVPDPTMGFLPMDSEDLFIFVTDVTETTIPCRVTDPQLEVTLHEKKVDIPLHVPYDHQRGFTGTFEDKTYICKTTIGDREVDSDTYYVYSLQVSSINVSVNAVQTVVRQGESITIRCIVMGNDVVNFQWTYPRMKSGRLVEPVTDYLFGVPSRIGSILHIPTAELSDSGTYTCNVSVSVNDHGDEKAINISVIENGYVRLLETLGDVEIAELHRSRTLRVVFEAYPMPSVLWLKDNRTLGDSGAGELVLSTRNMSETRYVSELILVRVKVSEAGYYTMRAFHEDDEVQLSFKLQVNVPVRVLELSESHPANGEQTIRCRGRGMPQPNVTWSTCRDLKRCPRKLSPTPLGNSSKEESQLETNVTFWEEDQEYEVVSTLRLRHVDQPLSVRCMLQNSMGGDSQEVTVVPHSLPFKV
Description: biotin-streptavidin ELISA, mouse PDGFR β ECD coated at 4 ug/ml. As for the experimental part:
as §2
ELISA Method 96-well maxisorp (Nunc) immunosorp plates were coated with 1 ug/ml or 2 ug/ml of PDGFR β extracellular domain (ECD; Fc- and His-tagged, Sino Biological) or mouse PDGFR β ECD (R&D Systems) 4 ug/ml in PBS, 100 ul per well, at 4C overnight. Wells were washed thrice in PBS. Unspecific binding sites were blocked in 4% BSA/PBS for 1h at RT, followed by washing thrice in PBS. VHHs 1B5-biotin or 1E12-biotin, diluted at 0.01-100 nM in 1% BSA/PBS, was allowed to bind on ECD for 1 h at RT, followed by washing thrice in PBS. Streptavidin-horseradish peroxidase (HRP; GeneTex) was diluted 1:10,000 in 1% BSA/PBS and was incubated for 1 h at RT. […] Optical density was measured at 492 nm on a Synergy H1 microplate reader (BioTek).

Experiment [5] deals with T3, human PDGFR β extra-cellular domain …. Description: SPR (Biacore 3000), Fc/His PDGFR β ECD captured on protein A; only 1E12-Flag-His was run in SPR. As for the experimental part: (§3) FIG. 11: VHH (flag-his-tagged, or conjugated with HL488, NOTA or 800 CW) binding to human extracellular domain (ECD) of PDGFR β assessed with surface plasmon resonance (SPR). Fc/His-tagged PDGFR β ECD was bound to protein A chemically conjugated to CM4 sensor chip. Binding of VHHs was tested at 0.39-50 nM. Shown are representative SPR Biacore traces of tagged or conjugated 1B5 VHH (panels A); tagged or conjugated 1D4 VHH (panels B); tagged or conjugated 1H4 VHH (panels C) or tagged VHH 1E12 (panel D).
(§4) SPR analysis was performed using the Biacore 3000 instrument (GE Healthcare). Protein A was chemically bound to a CM4 sensor chip (GE Healthcare) according to the primary amine procedure to approximately 2100 response units (RU). Fc/His-tagged PDGFR β ECD at 0.4-2.07 ng/ul was bound to protein A at flow rate of 35 ul/min. Run buffer HBS-EP (GE Healthcare; 0.01 M HEPES pH 7.4, 0.15 M NaCl, 3 mM EDTA, 0.005% v/v Surfactant P20) was used for VHHs 1D4, 1H4 and 1E12 conjugates at 50, 25, 12.5, 6.25, 3.13, 1.56, 0.78 and 0.39 nM. For 1B5 conjugates, HBS-EP+0.5 M NaSCN was as run buffer to reduce non-specific binding to a control path without PDGFR β ECD. A flow rate 70 ul/min was used for VHH injections in volumes of 150 ul. Regeneration of the sensor CM4 chip was performed by three successive injections of c. 30 s 10 mM glycine-HCl pH 2, 10 mM glycine-HCl pH 1.5, and 0.5 M NaSCN/10 mM NaOH.
On the technique in general: In SPR one partner is held on a chip, and binding of the other changes the refractive index at the surface.

The target of experiment [6] is human PDGFR β ECD (U-protein Express, Utrecht) (human) (UniProt P09619). In words: dose response ELISA on immobilized PDGFR β.
The target is the same in experiment [7]. Description: dose response ELISA, PDGFR β ECD coated at 2 µg/ml, rabbit anti-VHH detection.
In experiment [8] the target is T3, human PDGFR β extra-cellular domain …. In words: SPR (Biacore 3000), Fc/His PDGFR β ECD captured on protein A; 1D4 construct not stated. As for the experimental part:
as §3, §4

B1: 1B5-biotin (VHH)
VHH: EVQLVESGGGLVQPGGSLRLSCVASGFSFSESAMSWVRQAPGKGLEWLSGISSGGGRSTTYAESVEGRFTISRDDAKNTLMLQMNSLKSEDTAVYYCAKTGYCSGYNCNFAPRGQGTQVTVSS
modifications: Biotin-maleimide on the C-terminal cysteine of the C-Direct tag
notes: ID NO: 25 or 26; also called VHH 1B5-biotin; biotin-conjugated 1B5; not shown: C-terminal C-Direct tag with a free cysteine and an EPEA purification tag (vector pYQVQ11)
One may read the EC50 as the concentration that produces a half-maximal response. B1: the binding result in experiment [1] and in experiment [2] was “no binding (tested: 0.01-100 nM)” in each case. The EC50 in experiment [3] was found to be 0.117 nM.

B2: 1E12-biotin (VHH)
VHH: EVQLVESGGGLVQAGGSLRLSCAPSERSFSAYLMGWFRQAQGKEREFVAAWRWPTSTTYYSDSGKGRFTITGDNAKNTVELEMNSLKPEDTAVYYCAARRGILYGPATSPTAYDFWGQGTQVTVSS
modifications: Biotin-maleimide on the C-terminal cysteine of the C-Direct tag
notes: ID NO: 31 or 32; also called VHH 1E12-biotin; biotin-conjugated 1E12; not shown: C-terminal C-Direct tag with a free cysteine and an EPEA purification tag (vector pYQVQ11)
On to B2, for which the binding result in experiment [1] and in experiment [2] was “no binding (tested: 0.01-100 nM)” each time. In experiment [4], the EC50 came out at 1.1 nM.

B3: 1E12-Flag-His (VHH)
VHH: B2 VHH
notes: Made in E. coli; ID NO: 31 or 32 (N-terminal residue differs); also called VHH 1E12 (flag-his-tagged); tagged VHH 1E12; not shown: C-terminal FLAG-His tag from vector pMEK222
One may read the Kd as the equilibrium constant for the complex coming apart. A high value points to a looser complex. Regarding B3, the equilibrium dissociation constant (Kd) in experiment [5] was roughly 100 nM.

B4: QPD-1D4 (VHH)
VHH: EVQLVESGGGLVQAGDSLRLSCAVSGRAQSRDVVGWFRQAPGKEREFLALVTRSYSTYYGASVKGRFTISRDNAKNTVHLEMNSLKPEDTGVYYCAADQGFCSGSGCYDWRTFHVWGQGTQVTVSS
notes: Purified, unconjugated VHH; also called VHH 1D4
For B4, the apparent binding affinity in experiment [6] was found to be 0.5 nM. Also, the apparent affinity in experiment [7] is less than 1 nM. Moreover, the Kd in experiment [8] is roughly 0.02 nM.
